The data set deals with O=C(O)c1ccc(O)c(O)c1. In words: purified protein, by the assay type. The following applies: other: PCA substrate, 200 µM NADPH, 10 µM FAD, pH 7.9, 25° C., 340 nm.

Description: The cell-free extracts were subjected to a HisTrap HP column (GE healthcare) which was equilibrated with an equilibration buffer (20 mM Tris-HCl buffer (pH 7.9), 20 mM imidazole), and then fractions eluted with an eluent (20 mM Tris-HCl buffer (pH 7.9), 500 mM imidazole) were collected.
The protein concentrations of the purified enzyme liquids were measured using Bio-Rad Protein Assay Dye Reagent Concentrate (Bio-Rad, USA), and the purified enzyme liquids were diluted to 1 of mg/mL with a buffer. Thus, purified enzyme liquids protocatechuic acid 5-hydroxylases, HgPobA, HyPobA, PoPobA, HgPobA-TY and PaPobA, were prepared.
Using the purified enzyme liquids of HgPobA, HgPobA-TY, PoPobA, HyPobA and PaPobA described above, a reaction kinetic analysis was conducted.

With “Pseudomonas aeruginosa-derived PobA (PaPobA), p-hydroxybenzoate hydroxylase, wild type, SEQ ID NO: 28 (Pseudomonas aeruginosa PAO1)”, the Michaelis constant (Km) (usually the concentration of substrate that gives half-maximal velocity) stood at 140 µM.
